Test results from patent publication US20160171150A1, “Chemical Modulators of Pro-Apoptotic BAX and BCL-2 Polypeptides” (Dana-Farber Cancer Institute, Inc., priority 2008, published 2016).

Target: T1, BAX (Homo sapiens, UniProt Q07812)
T1 construct: Full-length human BAX-encoding cDNA (aa 1-192) was cloned into pTYB1 plasmid; made in house; host or cells: Escherichia coli BL21(DE3)
Test: NMR analysis of BIM SAHB binding to BAX
Conditions: 1H-15N correlation spectrum, BIM SAHB titration
Text: To investigate the initiating event for BAX activation, the interaction of BAX with the BH3 ligand BIM SAHB was studied. […] BIM SAHB binding to BAX was monitored using Nuclear Magnetic Resonance (NMR) spectroscopy. Compared to the ^1H-^15N correlation spectrum of BAX, the addition of BIM SAHB broadened and shifted select NMR cross-peaks, indicating fast exchange between the bound and unbound conformations of BAX. The overall features of the NMR spectra were quite similar except for significant changes in the loop residues between α1 and α2 upon BIM SAHB binding. […] Significant changes were also observed for the side-chain NH2 of Q28, Q32, and Q52. […]
Screening by NMR is conducted by recording ^1H-^13C filtered-1D experiments of uniformly ^13C-labeled BAX at 25-50 μM concentrations, in the absence and presence of compounds at 50-100 μM concentrations. […] The weighted average chemical shift difference is calculated as √{square root over ({(ΔH)2+(ΔN/5)2}/2)} in p.p.m. and plotted as a function of the residue number of BAX. […] NMR experiments are processed with the NMRPipe spectral analysis package and chemical shifts variations measured with NMRView software. NMR spectra are recorded, for example, at 30° C. on Bruker Avance 600 MHz equipped with a z-shielded gradient, triple resonance cryoprobe.

T1 sequence (Q07812 whole entry, the tested form may be a part): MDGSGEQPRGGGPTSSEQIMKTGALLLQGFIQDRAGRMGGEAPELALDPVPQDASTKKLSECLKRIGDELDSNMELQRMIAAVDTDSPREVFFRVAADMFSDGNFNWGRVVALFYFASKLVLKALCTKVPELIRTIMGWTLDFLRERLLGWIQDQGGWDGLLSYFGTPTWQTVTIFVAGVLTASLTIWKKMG

BIM SAHB: hydrocarbon-stapled BIM BH3 peptide (SEQ ID NO:3), Stabilized Alpha-Helix of BCL-2 domain; direct BAX-activating compound
binding to BAX (chemical shift perturbation mapping): revealed interactions at a discrete subset of BAX residues
